Reference: the supplement of paper PMC12764529
± gives the half width of the 95% confidence interval.

Assays:
[1] = folding stability dG unfold from chymotrypsin proteolysis; higher = more stable
How it was run: (§1)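 Unfolding free energy was derived, per protease or combined, by relating Bayesian-fitted K50 values from sequencing counts to a sequence-predicted unfolded-state K50 and a shared folded-state K50. The underlying digests exposed cysteine-free mini-proteins under 80 residues, in a PA-tagged cDNA display construct, to trypsin and chymotrypsin at 11 threefold-diluted concentrations and to a no-protease condition. A filter kept only designs with AlphaFold2 dimer inter-PAE above 15.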

[2] = folding stability dG unfold from trypsin proteolysis; higher = more stable
How it was run: as §1

[3] = folding stability dG unfold (combined trypsin and chymotrypsin); higher = more stable
How it was run: as §1

| Sequence | folding stability dG unfold [1] [kcal/mol] | folding stability dG unfold [2] [kcal/mol] | folding stability dG unfold [3] [kcal/mol] |
| --- | --- | --- | --- |
| SAGGSAGGSAGTVIRVRDKNGKIVEISLEEAAELLGIPPSELTLEDIVKAFAEKVDSIEILSSAGGSAGGSA [r18_403_TrMRF] | 2.3 ± 0.038 | 3.6 ± 0.1 | 2.91 ± 0.064 |
| SAGGSAGGSAGVITIPLDDINDLPPGFKVKPNNNSMMIEDGDNPIHIPPGEPVQIEPPDESAGGSAGGSAGG [r17_91_TrROS] | 0.346 ± 0.097 | 0.65 ± 0.1 | 0.466 ± 0.22 |
| SAGGSAGGSAGVSFVVDALFVDPNTNEVYHGHIEFYDDGTAKITLTNQNGKTKTFTFPVLFSAGGSAGGSAG [r3_61_TrMRF] | 3.25 ± 0.049 | 2.73 ± 0.14 | 3.01 ± 0.19 |
| SAGGSAGGSAGVVDEVKAALEPQGLKVLSVTPGSSSVTVTVLDPKKGETTTFTIPLDDPLSAGGSAGGSAGG [r11_428_JUSTAS] | 1.28 ± 0.088 | 1.02 ± 0.029 | 1.22 ± 0.057 |
| SAGGSAGGSAGVVEPTVVSRAPDGTLTVVLNLPDGSTRTVTDPTNVTIGDRPINALTNASSAGGSAGGSAGG [r11_1017_JUSTAS] | 0.508 ± 0.042 | -0.956 ± 0.45 | 0.222 ± 0.14 |
| SAGGSAGGSAGVVLTEDGYAVATVTVTTTTVEYDEETGEWKETTTTTTETLTVVVPVGATSAGGSAGGSAGG [r17_527_TrROS_Hall] | 1.6 ± 0.14 | 2.66 ± 0.2 | 2.22 ± 0.098 |
| SAGGSAGGSAGVVRTDDGREVTVRRTVRVEVRLEITITASEEDREKAAAALERLLRELGLSAGGSAGGSAGG [r17_501_TrROS_Hall] | 3.04 ± 0.086 | 2.68 ± 0.24 | 2.86 ± 0.16 |
| SAGGSAGGSAGWFFVMDIKYEYRQTPDGKTEQEMSIEMKPIPPIPAEDLKEKLGLPPEDIASAGGSAGGSAG [r3_338_TrROS] | 2.62 ± 0.11 | 0.937 ± 0.067 | 1.94 ± 0.17 |
| SAGGSAGGSAGWFTIMFKADSPEKVEEIVDELAQENGLEVEIERNPGEPGYIMITIKPPPSAGGSAGGSAGG [r11_797_TrROS] | 0.974 ± 0.21 | 1.47 ± 0.054 | 1.27 ± 0.12 |
| SAGGSAGGSAGWLMIMFPIPPNADNVRIKWPDGPTQEHEMEPGSPVMIMIPPGNIKIEVDSAGGSAGGSAGG [r11_52_TrROS] | 1.24 ± 0.091 | 1.13 ± 0.054 | 1.21 ± 0.1 |
| SAGGSAGGSAGWRTHSHWVPPDNIPELAERIQDWGVKVEIERDPKDGWYRVTITIPDDFISAGGSAGGSAGG [r11_1043_TrROS] | 1.38 ± 0.15 | 0.793 ± 0.058 | 1.21 ± 0.14 |
| SAGGSAGGSAGYKPGEVVYIEVEDPETGKSLKVPVKVPENMTPEQAKKLAEEAAKKYREGSAGGSAGGSAGG [r11_355_TrMRF] | 2.22 ± 0.095 | 1.57 ± 0.082 | 2.02 ± 0.16 |
| SAGGSAGGSAGYVVIPLDIDAEPGATVEITLPNGEKIEAIVEDHPDGLRSVRVGDGVILVPGSAGGSAGGSA [r18_372_TrMRF] | 0.827 ± 0.05 | 0.465 ± 0.032 | 0.742 ± 0.087 |
| SAGGSAGGSAHKITITLPNGNPPEIVVEFETEEEAKEKAEEIIKKLEEEGYPKENLTVTIEKESAGGSAGGS [r12_295_JUSTAS] | 1.76 ± 0.087 | 1.87 ± 0.076 | 1.86 ± 0.12 |
| SAGGSAGGSAILVPSPETAKKIMDELRKKTGAKVKMKPIGTGADGKEYYRIEVVPPDKPLDSAGGSAGGSAG [r3_59_TrMRF] | -0.118 ± 0.14 | 0.029 ± 0.084 | 0.0705 ± 0.14 |
| SAGGSAGGSAIMINIDLEYDPGDGTIELEYKISFMDPGGKPMGMITIRLEIRIPPPEPDPDDKSAGGSAGGS [r12_254_TrROS] | 3.64 ± 0.39 | 3.08 ± 0.31 | 3.37 ± 0.46 |

| Sequence | folding stability dG unfold [1] [kcal/mol] | folding stability dG unfold [2] [kcal/mol] | folding stability dG unfold [3] [kcal/mol] |
| --- | --- | --- | --- |
| SAGGSAGGSAIVILLPWGFLIEIKNIRMEMKRDPGNGEPKMDMHIPIEIIPIPPPGDPAFQESAGGSAGGSA [r18_6_TrROS] | 3.17 ± 0.039 | 2.12 ± 0.054 | 2.79 ± 0.14 |
| SAGGSAGGSAKAKIKKVEVEKEGDKLRVTAEIELEDGYVLKVSFEFKDDEIKMEIEIVPLKDSAGGSAGGSA [r18_79_TrROS_Hall] | 3.38 ± 0.29 | 3.02 ± 0.32 | 3.22 ± 0.48 |
| SAGGSAGGSAKAKVIKTEEFELPNGVRIRIEYIEVDGKLIEKVEIEIKAESEEQKKALEKASAGGSAGGSAG [r3_158_TrROS_Hall] | 1.82 ± 0.15 | 1.29 ± 0.052 | 1.71 ± 0.17 |
| SAGGSAGGSAKIRLIFKTEEEARKAIEALLPEGAKAKIKVEKRKDGKKYVVVEIEFKEEEESAGGSAGGSAG [r3_87_TrROS_Hall] | 3.79 ± 0.23 | 3.58 ± 0.24 | 3.57 ± 0.21 |
| SAGGSAGGSAKIWIILKDADEARDRIEELFGPGVRIEPVNIQRWDGKVYVMIEIEIPPNMTSAGGSAGGSAG [r3_87_TrROS] | 2.4 ± 0.051 | 2.1 ± 0.055 | 2.28 ± 0.054 |
| SAGGSAGGSAKKKILVKKPDGRLLLIEIDKDKPNTVRIYDIDTGKKIELSVEDLKKLKIKKSAGGSAGGSAG [r3_451_TrROS_Hall] | 2.35 ± 0.052 | 1.57 ± 0.034 | 2.08 ± 0.052 |
| SAGGSAGGSAKKPVTGTIILKYPGTPEDALAKAKEIAKELESRGYSVSAEFLPNGYIKITLPSAGGSAGGSA [r18_262_TrMRF] | 1.78 ± 0.051 | 1.48 ± 0.049 | 1.73 ± 0.098 |
| SAGGSAGGSAKKTLYKVKITKKNKNGEKIEIVVPKSEDEIKEEAKKKFGIDKIEIEPVELKSAGGSAGGSAG [r3_220_TrROS_Hall] | 0.466 ± 0.19 | -0.305 ± 0.16 | 0.182 ± 0.17 |
| SAGGSAGGSAKKVIKAKILEVKVLPDGTGLVKLEGEDGLEVVIPLSILENISPDAIVTIEASAGGSAGGSAG [r3_315_TrMRF] | 1.79 ± 0.039 | 0.916 ± 0.055 | 1.45 ± 0.066 |
| SAGGSAGGSAKKVKIEEKDGELTITVEPGEKVLIVYPDGTVEEVEVKEGDTITLPPGAKVLPSAGGSAGGSA [r18_452_TrROS_Hall] | 1.63 ± 0.12 | 0.513 ± 0.11 | 1.33 ± 0.24 |
| SAGGSAGGSAKLEYDDDYVEIEFKVPDGPIMIYIPDWGWMIWIWPGKEVTIRFPIPKPPDNSAGGSAGGSAG [r3_185_TrROS] | 4.03 ± 0.24 | 2.41 ± 0.089 | 3.43 ± 0.22 |
| SAGGSAGGSAKLVKITFSNGEELVLPADKFSIEAIKSLPVPAKVEVFDVPKSDTNLEDLLKSAGGSAGGSAG [r3_69_TrMRF] | 2.03 ± 0.022 | 0.72 ± 0.043 | 1.66 ± 0.044 |
| SAGGSAGGSAKMEIVLEVDTPEEAKEAAKKLAEELKKKGYKVKVEVKKLKNGKYYVKITVDSAGGSAGGSAG [r3_211_TrROS_Hall] | 4.84 ± 0.26 | 3.33 ± 0.23 | 4.66 ± 0.33 |
| SAGGSAGGSAKPKVKIEVEERRVLTLDPETGELKEERVLVVRIEVEPGMSEEEAKKLLEELASAGGSAGGSA [r18_438_TrROS_Hall] | 2.66 ± 0.12 | 1.7 ± 0.079 | 2.27 ± 0.16 |
| SAGGSAGGSAKPLTVEEIIKKLNLPPNVEIVDVKVDYGKTENKPIIVLVLKTKDKPYLPVFASAGGSAGGSA [r18_354_TrMRF] | 1.91 ± 0.065 | 1.25 ± 0.097 | 1.61 ± 0.17 |
